Data set [1] deals with the molecule itself. In words: SEC; gel filtration chromatography of the purified enzyme, before addition of substrate and cofactor; hexamer and dimer peaks.
Data set [2] concerns the molecule itself. In words: SEC; gel filtration chromatography of the purified enzyme with substrate and cofactor added (holocomplex). In general terms: In gel filtration, larger molecules generally elute earlier.

Values joined by “and” are separate entries in the source; they are usually repeats but may differ in a detail not shown here. Equal values may be shown once.

B1: UGDH T325D, obligate dimer mutant (enzyme, human)
chain: MFEIKKICCIGAGYVGGPTCSVIAHMCPEIRVTVVDVNESRINAWNSPTLPIYEPGLKEVVESCRGKNLFFSTNIDDAIKEADLVFISVNTPTKTYGMGKGRAADLKYIEACARRIVQNSNGYKIVTEKSTVPVRAAESIRRIFDANTKPNLNLQVLSNPEFLAEGTAIKDLKNPDRVLIGGDETPEGQRAVQALCAVYEHWVPREKILTTNTWSSELSKLAANAFLAQRISSINSISALCEATGADVEEVATAIGMDQRIGNKFLKASVGFGGSCFQKDVLNLVYLCEALNLPEVARYWQQVIDMNDYQRRRFASRIIDSLFNDVTDKKIAILGFAFKKDTGDTRESSSIYISKYLMDEGAHLHIYDPKVPREQIVVDLSHPGVSEDDQVSRLVTISKDPYEACDGAHAVVICTEWDMFKELDYERIHKKMLKPAFIFDGRRVLDGLHNELQTIGFQIETIGKKV
notes: UDP-glucose 6-dehydrogenase, human, with T325D; also called UGDH T325D dimeric mutant
Broadly, the stoichiometry N is the number of molecules, sites or subunits per partner or assembly. With B1, in data set [1], the “stoichiometry N” value turned out to be 2.

B2: UGDH Δ132, hexameric mutant (enzyme, human)
chain: MFEIKKICCIGAGYVGGPTCSVIAHMCPEIRVTVVDVNESRINAWNSPTLPIYEPGLKEVVESCRGKNLFFSTNIDDAIKEADLVFISVNTPTKTYGMGKGRAADLKYIEACARRIVQNSNGYKIVTEKSTPVRAAESIRRIFDANTKPNLNLQVLSNPEFLAEGTAIKDLKNPDRVLIGGDETPEGQRAVQALCAVYEHWVPREKILTTNTWSSELSKLAANAFLAQRISSINSISALCEATGADVEEVATAIGMDQRIGNKFLKASVGFGGSCFQKDVLNLVYLCEALNLPEVARYWQQVIDMNDYQRRRFASRIIDSLFNTVTDKKIAILGFAFKKDTGDTRESSSIYISKYLMDEGAHLHIYDPKVPREQIVVDLSHPGVSEDDQVSRLVTISKDPYEACDGAHAVVICTEWDMFKELDYERIHKKMLKPAFIFDGRRVLDGLHNELQTIGFQIETIGKKV
notes: construct of earlier work; Named only once, as a control of the gel filtration
As to B2, the “stoichiometry N” value in data set [1] stood at 6.

B3: UDP-glucose 6-dehydrogenase (UGDH), human, wild type, recombinant (enzyme, UniProt O60701 1-494, looked up)
chain: MFEIKKICCIGAGYVGGPTCSVIAHMCPEIRVTVVDVNESRINAWNSPTLPIYEPGLKEVVESCRGKNLFFSTNIDDAIKEADLVFISVNTPTKTYGMGKGRAADLKYIEACARRIVQNSNGYKIVTEKSTVPVRAAESIRRIFDANTKPNLNLQVLSNPEFLAEGTAIKDLKNPDRVLIGGDETPEGQRAVQALCAVYEHWVPREKILTTNTWSSELSKLAANAFLAQRISSINSISALCEATGADVEEVATAIGMDQRIGNKFLKASVGFGGSCFQKDVLNLVYLCEALNLPEVARYWQQVIDMNDYQRRRFASRIIDSLFNTVTDKKIAILGFAFKKDTGDTRESSSIYISKYLMDEGAHLHIYDPKVPREQIVVDLSHPGVSEDDQVSRLVTISKDPYEACDGAHAVVICTEWDMFKELDYERIHKKMLKPAFIFDGRRVLDGLHNELQTIGFQIETIGKKVSSKRIPYAPSGEIPKFSLQDPPNKKPKV
notes: UDP-glucose 6-dehydrogenase, human; In solution a mix of hexamer (trimer of dimers) and dimer; also called UGDH WT; WT UGDH
On to B3, for which the “stoichiometry N” value in data set [1] is 6 and 2.

B4: UGDH S316A, phosphodeficient point mutant, recombinant (enzyme, human, UniProt O60701 1-494, looked up)
chain: MFEIKKICCIGAGYVGGPTCSVIAHMCPEIRVTVVDVNESRINAWNSPTLPIYEPGLKEVVESCRGKNLFFSTNIDDAIKEADLVFISVNTPTKTYGMGKGRAADLKYIEACARRIVQNSNGYKIVTEKSTVPVRAAESIRRIFDANTKPNLNLQVLSNPEFLAEGTAIKDLKNPDRVLIGGDETPEGQRAVQALCAVYEHWVPREKILTTNTWSSELSKLAANAFLAQRISSINSISALCEATGADVEEVATAIGMDQRIGNKFLKASVGFGGSCFQKDVLNLVYLCEALNLPEVARYWQQVIDMNDYQRRRFAARIIDSLFNTVTDKKIAILGFAFKKDTGDTRESSSIYISKYLMDEGAHLHIYDPKVPREQIVVDLSHPGVSEDDQVSRLVTISKDPYEACDGAHAVVICTEWDMFKELDYERIHKKMLKPAFIFDGRRVLDGLHNELQTIGFQIETIGKKVSSKRIPYAPSGEIPKFSLQDPPNKKPKV
notes: UDP-glucose 6-dehydrogenase, human
On to B4, for which the results for the “stoichiometry N” value in data set [1] and in data set [2] were 2 and 6, respectively.

B5: UGDH S316D, phosphomimetic point mutant, recombinant (enzyme, human, UniProt O60701 1-494, looked up)
chain: MFEIKKICCIGAGYVGGPTCSVIAHMCPEIRVTVVDVNESRINAWNSPTLPIYEPGLKEVVESCRGKNLFFSTNIDDAIKEADLVFISVNTPTKTYGMGKGRAADLKYIEACARRIVQNSNGYKIVTEKSTVPVRAAESIRRIFDANTKPNLNLQVLSNPEFLAEGTAIKDLKNPDRVLIGGDETPEGQRAVQALCAVYEHWVPREKILTTNTWSSELSKLAANAFLAQRISSINSISALCEATGADVEEVATAIGMDQRIGNKFLKASVGFGGSCFQKDVLNLVYLCEALNLPEVARYWQQVIDMNDYQRRRFADRIIDSLFNTVTDKKIAILGFAFKKDTGDTRESSSIYISKYLMDEGAHLHIYDPKVPREQIVVDLSHPGVSEDDQVSRLVTISKDPYEACDGAHAVVICTEWDMFKELDYERIHKKMLKPAFIFDGRRVLDGLHNELQTIGFQIETIGKKVSSKRIPYAPSGEIPKFSLQDPPNKKPKV
notes: as for B4
For the protein B5, the figures for the “stoichiometry N” value in data set [1] and in data set [2] were 2 and 6, respectively.

(Values after article PMC13330650, “Phosphorylation of UDP-glucose dehydrogenase increases glycosaminoglycan biosynthesis and promotes tumor cell motility, spheroid growth, and therapeutic resistance” (Matrix biology : journal of the International Society for …, 2025).)
